Data published in patent publication US20220017636A1 (Amgen, published 2022).
Blank lines part the entries; values can stand above or below the binder they belong to.

Assays:
Assay in all cases: flow cytometry, peptide-loaded T2 cells;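 also: binding of single-chain Fv antibody constructs, raised in XenoMouse, to peptide-pulsed T2 cells measured by flow cytometry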
[1] = molecular target: T1, CNDP2 peptide complexed with HLA-A*02:01 on T2 cells (human)
T1 construct: whole, on cells; also called CNPD2
Description: (§1) Binding of pMAGE-HLA scFv constructs, generated from the XenoMouse, on peptide loaded T2 cells was evaluated by flow cytometry.

[2] = molecular target: T2, STXBP5 peptide complexed with HLA-A*02:01 on T2 cells (human)
T2 construct: whole, on cells
Description: as §1

[3] = molecular target: T3, KEA peptide complexed with HLA-A*02:01 on T2 cells (human)
T3 construct: whole, on cells
Description: as §1

[4] = molecular target: T4, ADF peptide complexed with HLA-A*02:01 on T2 cells (human)
T4 construct: whole, on cells
Description: as §1

[5] = molecular target: T5, MB peptide complexed with HLA-A*02:01 on T2 cells (human)
T5 construct: whole, on cells
Description: as §1

[6] = molecular target: T6, MAGEB2 peptide … (SEQ ID NO: 1) complexed with HLA-A*02:01 on the cell surface (human)
T6 construct: whole, on cells; also called pMAGE-HLA; MAGEB2 pMHC
Description: as §1

[7] = molecular target: T7, DPYSL4 peptide complexed with HLA-A*02:01 on T2 cells (human)
T7 construct: whole, on cells
Description: as §1

[8] = molecular target: T8, COX14 peptide complexed with HLA-A*02:01 on T2 cells (human)
T8 construct: whole, on cells
Description: as §1

[9] = molecular target: T9, SLK peptide complexed with HLA-A*02:01 on T2 cells (human)
T9 construct: whole, on cells
Description: as §1

[10] = molecular target: T10, MYOF peptide complexed with HLA-A*02:01 on T2 cells (human)
T10 construct: whole, on cells
Description: as §1

B1: 18093-B11 (scFv)
scFv: EVQLLESGGGLVKPGGSLRLSCAASGFTFSDYYMSWIRQAPGKGLEWVSYISKSGSTIYYADSVKGRFTISRDNAKNSLYLQMNSLRAEDTAVYYCATYNYGHFDYWGQGTLVTVSSGGGGSGGGGSGGGGSELVLTQPPSVSVAPGQTARITCGGNNIGSKSVHWYQQKPGQAPVLVVYDDSDRPSGIPERFSGSNSGNTATLTISRVEAGDEADYYCQVWDSSSDHHVVFGGGTKLTVL
notes: scFv in bacterial lysate, detected with anti-Flag M2
Signal/background [1]: 1
Signal/background [2]: 1.1
Signal/background [3]: 1.1
Signal/background [4]: 1.1
Signal/background [5]: 1.2
Signal/background [6]: 219
Signal/background [7]: 1
Signal/background [8]: 1.2
Signal/background [9]: 1.1
Signal/background [10]: 1.2

B2: 18181-B8 (scFv)
scFv: EVQLLESGPGLVKPSQTLSLTCTVSGGSISSGGYYWSWIRQHPGKGLEWIGYISHSGSTYYNPSLKSRVTISVDTSKNQFSLNLTSVTAADTAVYYCAREKMWFGVLNYYYGMDVWGQGTTVTVSSGGGGSGGGGSGGGGSELVMTQTPLSLPVTPGEPASISCRSSQSLLHRNGYNYLDWYLQKPGQSPQLLIYLGSNRASGVPDRFIGSGSGTDFTLEISRVEAEDVGVYYCMQALQTPSFGQGTKVEIK
notes: as for B1
Signal/background [1]: 1
Signal/background [2]: 0.9
Signal/background [3]: 0.9
Signal/background [4]: 1
Signal/background [5]: 0.9
Signal/background [6]: 179
Signal/background [7]: 1
Signal/background [8]: 0.9
Signal/background [9]: 1
Signal/background [10]: 1

B6: 18181-G10 (scFv)
scFv: EVQLLESGPGLVKPSQTLSLTCTVSGDSISSNPYYWSWIRQLPGKGLEWIGYISYSGSTFYNPSLKSRVTISVDTSKNQFSLNLTSVTAADTAVYYCARDRLWFGVLNYYYGMDVWGLGTTVTVSSGGGGSGGGGSGGGGSELVMTQSPLSLPVTPGEPASISCRSSQSLLHSTGYNYVDWYLQKPGQSPQLLIYLGSNRASGVPDRFSGSGSGTDFTLKISRVEAEDVGFYYCMQALQTPRTFGQGTKVEIK
notes: as for B1
Signal/background [1]: 1.1
Signal/background [2]: 1
Signal/background [3]: 1
Signal/background [4]: 1
Signal/background [5]: 1
Signal/background [6]: 121
Signal/background [7]: 1
Signal/background [8]: 1
Signal/background [9]: 1.1
Signal/background [10]: 1

B7: 18181-C9 (scFv)
scFv: EVQLLESGPGLVKPSQTLSLTCTVSGDSISSNPYYWSWIRQLPGKGLEWIGYISYSGSTFYNPSLKSRVTISVDTSKNQFSLNLTSVTAADTAVYYCARDRLWFGVLNYYYGMDVWGLGTTVTVSSGGGGSGGGGSGGGGSELVLTQSPLSLPVTPGEPASISCRSSQSLLHRNGYNYLDWYLQKPGQSPQLLIYLGSNRASGVPDRFSGSGSGTDFTLKISRVEAEDVGVYYCMQGLQTPFTFGPGTKVEIK
notes: as for B1
Signal/background [1]: 1
Signal/background [2]: 1.1
Signal/background [3]: 0.9
Signal/background [4]: 1
Signal/background [5]: 1
Signal/background [6]: 140
Signal/background [7]: 0.9
Signal/background [8]: 0.9
Signal/background [9]: 1
Signal/background [10]: 1.1

B9: 18089-B2 (scFv)
scFv: EVQLLESGGGLVQPGGSLRLSCAASGFTFSSYAMSWVRQAPGRGLEWVSTISISGGSTNYADSVKGRFTISRDNSKNTLYLQMNSLRAEDTAVYYCAKDGGSGWFPKLLHYGLDVWGQGTTVTVSSGGGGSGGGGSGGGGSELQMTQSPSSLSASVGDRVTITCQASQDISNYLNWYQQKPGKAPKLLIYAASSLQSGVPSRFSGSGSGTDFTLTISSLQPEDFATYYCQQSYSIPLTFGGGTKVEIK
notes: as for B1
Signal/background [1]: 1
Signal/background [2]: 1
Signal/background [3]: 1
Signal/background [4]: 1
Signal/background [5]: 1.1
Signal/background [6]: 318
Signal/background [7]: 1
Signal/background [8]: 0.9
Signal/background [9]: 1.1
Signal/background [10]: 1.1

Results, then the binder that gave them:

Signal/background [1]: 1.1
Signal/background [2]: 1
Signal/background [3]: 0.9
Signal/background [4]: 1.1
Signal/background [5]: 1
Signal/background [6]: 443
Signal/background [7]: 1.1
Signal/background [8]: 1.1
Signal/background [9]: 1.1
Signal/background [10]: 1.1
B3: 18181-F1 (scFv)
scFv: EVQLLESGGGLVKPGGSLRLSCAASGFTFSNAWMSWVRQAPGKGLEWVGRIKGNTYGGTTDYAAPVKGRFTISRDDSKNTLFLQMNSLKTEDTAVYYCTTPSYSGSYYNYFSVMDVWGQGTTVTVSSGGGGSGGGGSGGGGSELVMTQSPSSLSASVGDRVTITCRTSQSISSYLNWYQQKPGRAPKLLIFAASSLQGGVPSRFSGSGSGTDFTLTISSLQPEDFATYYCQQTYSSPFTFGPGTKLEIK
notes: as for B1

Signal/background [1]: 1
Signal/background [2]: 1
Signal/background [3]: 0.9
Signal/background [4]: 1
Signal/background [5]: 0.9
Signal/background [6]: 489
Signal/background [7]: 1.1
Signal/background [8]: 1
Signal/background [9]: 1
Signal/background [10]: 1
B4: 18181-G8 (scFv)
scFv: EVQLLESGGGLVQPGGSLRLSCAASGFTFSNAWMSWVRQAPGKGLEWVGRIKGNTYGGTTDYAAPVKGRFTISRDDSKNTLFLQMNSLKTEDTAVYYCTTPSNSGSYYNYFSVMDVWGQGTTVTVSSGGGGSGGGGSGGGGSELVMTQSPSSLSASVGDRVTITCRTSQSISSYLNWYQQKPGKAPKLLIYAASSLQSGVPSRFSGSGSGTDFTLTISSLQPEDFATYYCQQTYSMPFTFGGGTKVEIK
notes: as for B1

Signal/background [1]: 1.1
Signal/background [2]: 1.2
Signal/background [3]: 1
Signal/background [4]: 1
Signal/background [5]: 0.9
Signal/background [6]: 232
Signal/background [7]: 1.1
Signal/background [8]: 0.9
Signal/background [9]: 1
Signal/background [10]: 1.1
B5: 18181-F3 (scFv)
scFv: EVQLLESGGGLVQPGGSLRLSCAASGFTFSNAWMSWVRQAPGKGLEWVGRIKGNTYGGTTDYAAPVKGRFTISRDDSKNTLFLQMNSLKTEDTAVYYCTTPSYSGSYYNYFSVMDVWGQGTTVTVSSGGGGSGGGGSGGGGSELVMTQSPSSLSASVGDRVTITCRTSQSISSYLNWYQQKPGRAPKLLIFAASSLQGGVPSRFSGSGSGTDFTLTISSLQPEDFATYYCQQSYSSPFTFGPGTKVEIK
notes: as for B1

Signal/background [1]: 1
Signal/background [2]: 1.1
Signal/background [3]: 1
Signal/background [4]: 1.1
Signal/background [5]: 1
Signal/background [6]: 103
Signal/background [7]: 1
Signal/background [8]: 1.1
Signal/background [9]: 1.1
Signal/background [10]: 1.1
B8: 18181-E2 (scFv)
scFv: EVQLLESGPGLVKPSQTLSLTCTVSGDSISSNPYYWSWIRQHPGKGLEWIGYISHSGSTYYNPSLKSRVTISVDTSKNQFSLNLTSVTAADTAVYYCARDRLWFGVLNYYYGMDVWGLGTTVTVSSGGGGSGGGGSGGGGSELVMTQSPLSLPVTPGEPASISCRSSQSLLHSSGYNYLDWYLQKPGQSPQLLIYLGSNRASGVPDRFSGSGSGTDFTLKISKVEAEDVGVYYCMQALQTPRTFGQGTKVDIK
notes: as for B1
